Paper PMC11555622

B1: DUOXA2: N84Q/N109Q/N121Q (protein)
parent chain: MTLWNGVLPFYPQPRHAAGFSVPLLIVILVFLALAASFLLILPGIRGHSRWFWLVRVLLSLFIGAEIVAVHFSAEWFVGTVNTNTSYKAFSAARVTARVRLLVGLEGINITLTGTPVHQLNETIDYNEQFTWRLKENYAAEYANALEKGLPDPVLYLAEKFTPSSPCGLYHQYHLAGHYASATLWVAFCFWLLSNVLLSTPAPLYGGLALLTTGAFALFGVFALASISSVPLCPLRLGSSALTTQYGAAFWVTLATGVLCLFLGGAVVSLQYVRPSALRTLLDQSAKDCSQERGGSPLILGDPLHKQAALPDLKCITTNL
B2: DUOXA1: N84Q/N109Q/N121Q (protein)
parent chain: MATLGHTFPFYAGPKPTFPMDTTLASIIMIFLTALATFIVILPGIRGKTRLFWLLRVVTSLFIGAAILAVNFSSEWSVGQVSTNTSYKAFSSEWISADIGLQVGLGGVNITLTGTPVQQLNETINYNEEFTWRLGENYAEEYAKALEKGLPDPVLYLAEKFTPRSPCGLYRQYRLAGHYTSAMLWVAFLCWLLANVMLSMPVLVYGGYMLLATGIFQLLALLFFSMATSLTSPCPLHLGASVLHTHHGPAFWITLTTGLLCVLLGLAMAVAHRMQPHRLKAFFNQSVDEDPMLEWSPEEGGLLSPRYRSMADSPKSQDIPLSEASSTKAYCKEAHPKDPDCAL

Experiments:
[1] = domain-selective surface biotinylation, apical vs basolateral; conditions: glycan lost
[2] = surface biotinylation, amount of DUOX2 at cell surface; conditions: glycan lost; control: wild type DUOXA2
[3] = confocal microscopy, polarized MDCK; conditions: glycan lost
[4] = immunoblot of HEK293 lysate; conditions: glycan lost
[5] = surface biotinylation, amount of DUOX1 at cell surface; conditions: glycan lost; control: wild type DUOXA1

Protein | localisation_or_trafficking ([1]; control: wild type DUOXA2) | localisation_or_trafficking [2] | localisation_or_trafficking ([3]; control: wild type DUOXA2) | expression_or_secretion ([4]; control: wild type DUOXA2) | localisation_or_trafficking ([1]; control: wild type DUOXA1) | localisation_or_trafficking [5] | localisation_or_trafficking ([3]; control: wild type DUOXA1) | expression_or_secretion ([4]; control: wild type DUOXA1)
B1 | no change | decreases | no change | decreases | – | – | – | –
B2 | – | – | – | – | changes | decreases | changes | no change
